Experimental data as given in paper PMC3035937 (Journal of molecular biology, 2010).

T1: GST-SpRad9 (S. pombe, UniProt P26306 1-426)
T1 sequence (looked up): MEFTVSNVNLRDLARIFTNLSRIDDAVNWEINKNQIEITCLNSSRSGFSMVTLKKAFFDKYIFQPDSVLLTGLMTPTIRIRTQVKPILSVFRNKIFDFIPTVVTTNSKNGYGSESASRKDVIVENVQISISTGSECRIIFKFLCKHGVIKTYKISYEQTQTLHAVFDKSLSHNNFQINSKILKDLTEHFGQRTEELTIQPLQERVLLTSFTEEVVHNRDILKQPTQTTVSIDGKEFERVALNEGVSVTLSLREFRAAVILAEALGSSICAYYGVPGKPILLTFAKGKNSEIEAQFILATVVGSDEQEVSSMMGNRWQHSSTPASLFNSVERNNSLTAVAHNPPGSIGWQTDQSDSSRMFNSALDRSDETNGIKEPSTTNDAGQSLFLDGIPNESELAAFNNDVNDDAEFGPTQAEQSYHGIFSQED

B1: purified SpHst4 (SpHst4-His) (natural protein, S. pombe, UniProt Q9UR39 1-415, looked up)
chain: MKVEEHVPLIQESRKRKCQSSENASKRQQLLSKLPLRLHTGNENVDLSPLVSAIRKAKRIVVVTGAGISCDAGIPDFRSSEGLFSSLRAEYKLNCSGKELFDGSVYRDLKSVNIFHAMIRKLHMLSNNARPTDFHLFLSQLAQESKLLRLYTQNIDFLETRLEGLQTCIPLPQSAPWPTTIPLHGTLEVVSCTRCSFLKKFNPDIFDRNGVTVCPDCKTENEVRRIAGKRSVIEGCLRPRIVLYNEIHPDSESIGSVCSQDLKSRPDCLIVAGTSCKIPGVKRIIKEMSNCVHKQKGNVIWLNYDEPTKDFLNLCDLVVQGDLQIAIRRLKPLLDAPSWKLKSHSAKRTSKQKSSEQTKITSSTKITKAIGLNTKSNDSSKKDNTSFQLHQVLNSIEIPKVEIKQEVEYATPSPL

Assays:
[1] = target: B1; assay: pull-down
[2] = target: T1, GST-SpRad9; assay: pull-down

| Binder | binding result [1] | binding result [2] |
| --- | --- | --- |
| GST-SpHus1 (natural protein, S. pombe, UniProt P78955 1-287, looked up) MRFKTRISNLYTLTRLVQALDKIGRFCWLRLMPETVNFVIVPDFRMTQVWSVLEVETIFEDYVVQSNADNVINLEVPIDNFYKALRSAANASDSTVRLSKKNNQPLLSLSTTWSGRAFGSNIVTHNIPVRVLSQSYVSVIKEPTAPEPDCHIFLPQLNFLRHVVDKYKSLSDRIIMSANMSGELQLSVNIPSARVSTKWKGLENPELDPSQVEDISRHPSQTRAPEEFVHMRLDSKDLVNMLKISSVAKRVIACFCEGHALVLYVYITDPEDEHTAVLTYYISTYVD | binds |  |
| GST-SpRad1 (natural protein, S. pombe, UniProt P22193 1-323, looked up) MFQAETVCLKQIQSTLRCIDFSKECTIEITSRGLRFAVEESQSLQAHAFLDKSLFQTFNFQGDSDGDTYMFQTMISPLLQSLSIYTDGKERISTSAWDQPTVNIMHKRGVICKVQYNGPGCPFIWEVEEMAGYATACELLTMECEDDVDINRLASTLCTKIIMKSNWLYDALVELDNNMGENLIIHTSSQKSTFLLRCVGALSTTEIEYPNEKSVLESFETDSENTYSYRFSLIRHALKALQVGSKVNLRIDENGTLSIQIMLVGQEGLCTFVDFCIVPLDLVSEDEEEDEEEEPAESNQSDNNVLRNDPNYRGDAETEDEDS | binds |  |
| B1 |  | binds |
